Data as given in patent publication US20190322765A1 (Hoffmann-La Roche, published 2019).
Values joined by “and” are separate entries in the source; they are usually repeats but may differ in a detail not shown here. Identical values can stand only once.

Assays:
[1] = target: FAP on GM05389 fibroblasts; experiment: FACS on GM05389 fibroblasts, surface-bound construct detected with secondary antibody after the times shown (internalization analysis); concentration not shown
[2] = target: T1, IL-2R βγ heterodimer on human cells (NK92 cells, NK and T cells of PBMC) (human, UniProt P14784 27-551; P31785 23-369); experiment: cell-based or functional assay
T1 sequence (looked up) 1: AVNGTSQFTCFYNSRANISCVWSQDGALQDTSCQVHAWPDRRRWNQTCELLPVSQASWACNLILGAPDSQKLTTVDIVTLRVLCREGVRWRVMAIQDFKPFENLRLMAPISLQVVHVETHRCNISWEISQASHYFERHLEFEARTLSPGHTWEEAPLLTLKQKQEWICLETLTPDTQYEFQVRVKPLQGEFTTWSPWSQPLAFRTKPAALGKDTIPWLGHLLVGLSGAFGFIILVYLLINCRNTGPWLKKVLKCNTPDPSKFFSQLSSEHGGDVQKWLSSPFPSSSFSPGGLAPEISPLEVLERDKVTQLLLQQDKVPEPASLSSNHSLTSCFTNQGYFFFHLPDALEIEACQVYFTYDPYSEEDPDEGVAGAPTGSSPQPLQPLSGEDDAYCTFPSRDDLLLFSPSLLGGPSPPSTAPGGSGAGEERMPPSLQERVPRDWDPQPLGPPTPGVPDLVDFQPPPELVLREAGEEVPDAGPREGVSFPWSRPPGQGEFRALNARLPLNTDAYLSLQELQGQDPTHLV
T1 sequence (looked up) 2: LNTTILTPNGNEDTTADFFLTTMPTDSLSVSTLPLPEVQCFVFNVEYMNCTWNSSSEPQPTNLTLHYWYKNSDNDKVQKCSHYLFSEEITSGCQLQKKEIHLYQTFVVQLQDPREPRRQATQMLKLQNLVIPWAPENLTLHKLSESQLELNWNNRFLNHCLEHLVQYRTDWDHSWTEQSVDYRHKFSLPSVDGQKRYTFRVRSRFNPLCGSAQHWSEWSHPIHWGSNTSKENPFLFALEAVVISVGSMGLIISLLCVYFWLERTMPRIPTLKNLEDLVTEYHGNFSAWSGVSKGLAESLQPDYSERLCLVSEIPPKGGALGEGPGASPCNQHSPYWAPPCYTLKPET

[3] = target: T2, human FAP expressed on stably transfected HEK293 cells (human, UniProt Q12884 1-760); experiment: FACS on HEK 293-human FAP cells, median fluorescence against concentration
T2 construct: whole, on cells

[4] = target: T3, human DPPIV on transfected HEK 293 cells (human, UniProt P27487 1-766); experiment: FACS on HEK 293-human DPPIV cells, with HEK mock-transfected cells, cells only and sec. antibody as controls; concentration not shown
T3 construct: whole, on cells; also called CD26

[5] = target: T2, human FAP expressed on stably …; experiment: FACS on FAP-expressing HEK cells
[6] = target: T4, human IL-2R βγ heterodimer, subunit-Fc knobs-into-holes fusion (human); experiment: SPR, receptor on CM5, 25°C, 1:1 fit
T4 construct: The entries may hold a leader peptide; also called Hu IL-2R βγ; human IL2-R β knob γ hole heterodimer

[7] = target: T5, murine IL-2R βγ heterodimer (β knob γ hole Fc fusion) (murine, UniProt P16297 27-240; P34902 23-263); experiment: SPR, receptor on CM5, 25°C, 1:1 fit
T5 construct: also called Mu IL-2R βγ; mouse IL-2R βγ heterodimer; not shown: Fc knob/hole part
T5 sequence (looked up) 1: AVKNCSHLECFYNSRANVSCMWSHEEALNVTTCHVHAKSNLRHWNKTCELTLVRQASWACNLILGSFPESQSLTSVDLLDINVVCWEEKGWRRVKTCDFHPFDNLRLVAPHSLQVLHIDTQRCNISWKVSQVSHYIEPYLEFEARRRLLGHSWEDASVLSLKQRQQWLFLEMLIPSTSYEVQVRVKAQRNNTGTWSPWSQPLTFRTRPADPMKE
T5 sequence (looked up) 2: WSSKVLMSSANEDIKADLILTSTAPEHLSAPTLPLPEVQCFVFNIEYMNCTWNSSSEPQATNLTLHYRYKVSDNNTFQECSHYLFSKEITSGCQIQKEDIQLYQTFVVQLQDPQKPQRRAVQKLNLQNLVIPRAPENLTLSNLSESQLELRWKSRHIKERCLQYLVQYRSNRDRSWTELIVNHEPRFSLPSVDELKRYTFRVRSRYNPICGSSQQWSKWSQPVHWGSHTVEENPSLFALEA

[8] = target: T6, cynomolgus IL-2R βγ heterodimer (β knob γ hole Fc fusion) (cynomolgus); experiment: SPR, receptor on CM5, 25°C, 1:1 fit
T6 construct: also called Cyno IL-2R βγ

[9] = target: T7, human IL-2R α-subunit, monomeric, with AcTev cleavage site and Avi His tag (human); experiment: SPR, receptor on CM5, 25°C
T7 construct: also called Hu IL-2R α; CD25
T7 chain: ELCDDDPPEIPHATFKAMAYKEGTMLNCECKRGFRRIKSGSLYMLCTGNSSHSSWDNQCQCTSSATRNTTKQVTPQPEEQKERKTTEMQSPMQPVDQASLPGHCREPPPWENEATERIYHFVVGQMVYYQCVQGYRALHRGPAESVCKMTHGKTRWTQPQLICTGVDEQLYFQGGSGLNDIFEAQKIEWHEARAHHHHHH

[10] = target: T4, human IL-2R βγ heterodimer, subunit-Fc …; experiment: SPR, receptor on CM5, 37°C, 1:1 fit
[11] = target: T5, murine IL-2R βγ heterodimer (β knob γ …); experiment: SPR, receptor on CM5, 37°C, 1:1 fit
[12] = target: T6, cynomolgus IL-2R βγ heterodimer (β knob …); experiment: SPR, receptor on CM5, 37°C, 1:1 fit
[13] = target: T4, human IL-2R βγ heterodimer, subunit-Fc …; experiment: SPR, receptor on CM5, 25°C, apparent KD, 1:1 fit
[14] = target: T8, cynomolgus IL-2R α-subunit, recombinant monomeric (cynomolgus, UniProt H6WS54 22-240); experiment: SPR, receptor on CM5, 25°C
T8 construct: also called Cyno IL-2R α
T8 sequence: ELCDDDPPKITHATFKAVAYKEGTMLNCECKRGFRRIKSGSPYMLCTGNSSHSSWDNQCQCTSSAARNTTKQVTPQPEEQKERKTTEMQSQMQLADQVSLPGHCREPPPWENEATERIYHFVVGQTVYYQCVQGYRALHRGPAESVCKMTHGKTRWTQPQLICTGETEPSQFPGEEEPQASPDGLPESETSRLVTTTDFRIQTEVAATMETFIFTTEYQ

[15] = target: T9, murine IL-2R α-subunit, recombinant monomeric (murine, UniProt P01590 22-236, limits assumed); experiment: SPR, receptor on CM5, 25°C
T9 construct: also called Mu IL-2R α
T9 sequence (looked up): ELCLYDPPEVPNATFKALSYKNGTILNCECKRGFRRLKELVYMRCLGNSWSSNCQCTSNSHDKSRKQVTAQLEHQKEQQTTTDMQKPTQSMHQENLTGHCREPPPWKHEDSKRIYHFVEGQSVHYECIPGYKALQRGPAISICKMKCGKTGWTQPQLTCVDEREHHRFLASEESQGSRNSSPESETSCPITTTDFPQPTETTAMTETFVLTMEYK

B1: 28H1 Fab-IL-2 qm-Fab (other)
chain: EVQLLESGGGLVQPGGSLRLSCAASGFTFSSHAMSWVRQAPGKGLEWVSAIWASGEQYYADSVKGRFTISRDNSKNTLYLQMNSLRAEDTAVYYCAKGWLGNFDYWGQGTLVTVSSASTKGPSVFPLAPSSKSTSGGTAALGCLVKDYFPEPVTVSWNSGALTSGVHTFPAVLQSSGLYSLSSVVTVPSSSLGTQTYICNVNHKPSNTKVDKKVEPKSCDSGGGGSGGGGSGGGGAPASSSTKKTQLQLEHLLLDLQMILNGINNYKNPKLTRMLTAKFAMPKKATELKHLQCLEEELKPLEEVLNGAQSKNFHLRPRDLISNINVIVLELKGSETTFMCEYADETATIVEFLNRWITFAQSIISTLTSGGGGSGGGGSGGGGEVQLLESGGGLVQPGGSLRLSCAASGFTFSSHAMSWVRQAPGKGLEWVSAIWASGEQYYADSVKGRFTISRDNSKNTLYLQMNSLRAEDTAVYYCAKGWLGNFDYWGQGTLVTVSSASTKGPSVFPLAPSSKSTSGGTAALGCLVKDYFPEPVTVSWNSGALTSGVHTFPAVLQSSGLYSLSSVVTVPSSSLGTQTYICNVNHKPSNTKVDKKVEPKSCD
light: EIVLTQSPGTLSLSPGERATLSCRASQSVSRSYLAWYQQKPGQAPRLLIIGASTRATGIPDRFSGSGSGTDFTLTISRLEPEDFAVYYCQQGQVIPPTFGQGTKVEIKRTVAAPSVFIFPPSDEQLKSGTASVVCLLNNFYPREAKVQWKVDNALQSGNSQESVTEQDSKDSTYSLSSTLTLSKADYEKHKVYACEVTHQGLSSPVTKSFNRGEC
notes: Fab-IL-2-Fab immunoconjugate against FAP with quadruple mutant IL-2; also called FAP 28H1 qm
Question: Does B1 bind [1]?
Answer: Result: binds

Question: What about the “EC50 of STAT5 phosphorylation, CD8+ T cells” value [2] of the same binder?
Answer: Its value is 20.6 nM.

Question: And the “EC50 of STAT5 phosphorylation, NK cells” value [2]?
Answer: Its value is 3.47 nM.

Question: And the “EC50 of STAT5 phosphorylation, Treg cells” value [2]?
Answer: Its value is 19.7 nM.

Question: And the “EC50 (read off the curve)” value [3]?
Answer: Its value is ~10 nM.

Question: Does B1 bind [4]?
Answer: Result: no binding

Question: And the EC50 [5]?
Answer: The EC50 was 0.7 nM.

Question: What about the Kd [6] of the same binder?
Answer: Its Kd is 7.5 nM and 6.9 nM.

Question: And the Kd [7]?
Answer: Its Kd is 66 nM and 54 nM.

Question: What about the Kd [8] of the same binder?
Answer: Its Kd is 8.9 nM and 8.4 nM.

Question: Does B1 bind [9]?
Answer: Result: no binding (tested: 300 nM)

Question: What about the Kd [10] of the same binder?
Answer: The Kd was 14.3 nM and 14.7 nM.

Question: What about the Kd [11] of the same binder?
Answer: Its Kd is 142 nM and 106 nM.

Question: What about the Kd [12] of the same binder?
Answer: The Kd was 21.3 nM and 21.2 nM.

Question: And the Kd [13]?
Answer: Its Kd is 11.4 nM.

Question: Does B1 bind [14]?
Answer: Result: no binding (tested: 25 nM)

Question: Does B1 bind [15]?
Answer: Result: no binding (tested: 25 nM)
